In series [1] the test system is T1, RhpRpsph (Pseudomonas syringae pv. phaseolicola), ORF:976030cf.
T1 sequence: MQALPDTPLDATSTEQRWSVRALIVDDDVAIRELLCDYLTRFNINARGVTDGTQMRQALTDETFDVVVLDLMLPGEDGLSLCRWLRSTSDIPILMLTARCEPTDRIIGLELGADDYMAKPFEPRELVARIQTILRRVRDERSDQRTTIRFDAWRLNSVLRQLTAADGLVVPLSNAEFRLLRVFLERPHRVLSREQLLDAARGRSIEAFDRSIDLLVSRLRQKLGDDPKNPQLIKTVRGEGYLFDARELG
Description: EMSA. As to conditions: 10 mM Tris-HCl pH 7.4, 50 mM KCl, 5 mM MgCl2, 10% glycerol, 3 ug/ml sheared salmon sperm DNA, room temperature. Background: Mobility shift assays separate free from complexed probe on a gel.

For series [2], the system named is RhpR (Pseudomonas syringae pv. tomato DC3000?). The series can be described thus: EMSA. The settings on record: 10 mM Tris-HCl pH 7.4, 50 mM KCl, 5 mM MgCl2, 10% glycerol, 3 ug/ml sheared salmon sperm DNA, room temperature.
For a further series, the target named is T2, RhpR (Pseudomonas syringae, UniProt A0ABY1U8E6).
T2 construct: gene virG; full-length, N-terminal His6 tag (pMCSG19, MBP cut off in vivo), E. coli BL21 star (DE3)
The series can be described thus: […] phosphorylation, autoradiography. The class given is biochemical. The settings on record: phosphodonor; covalent phosphorylation (putative site Asp70); labelled compound; 37 °C, 30 min.

In series [3] the test system is T3, RhpR (Pseudomonas syringae pv. tomato DC3000?), ORF:d96f1ca2.
T3 sequence: T1 sequence with D6E, T7N, P8T, E15D, T53S
The series can be described thus: EMSA. The settings on record: 10 mM Tris-HCl pH 7.4, 50 mM KCl, 5 mM MgCl2, 10% glycerol, 3 ug/ml sheared salmon sperm DNA, room temperature.

Substitutions are numbered along the chain they refer to.

As for “ATATTACCGCGCAAACCATCGACCAGGATTTTGCCCGCAACGGCAAGATTCACCGCGCCTGGAAAATCATGGCGCGTGCCTGATACGGTGTGTGATGAGCTTGCCTGTAACAGTTTTGTACAGGTTTGCTCATCGCTCCCTATGAAAATTACTGGCGAATAGCTATAACAGAAGTCATAGCCAGCTTGACGCTTCAGCATGTTGGCGTCATGAGTTTCTG (double strand) [rlmL]”, in series [1], the binding result was “binds”.
In series [2], rhpR promoter EMSA probe registered a binding signal (fold affinity vs unphosphorylated RhpR) of 8. In addition, in series [2] (scale: fold affinity vs unphosphorylated RhpR), the binding signal came out at 8.
As for `CC(=O)OP(=O)(O)O` [acetyl phosphate], the “32P phosphorylation, autoradiography” value at RhpR is recorded as “The phosphorylated RhpR was readily detected”.
Take “CGCCTGGCGAATGTCTTATGGCAGCTTATTCGCAGCAGCAACTCATAGGCATCGGGGGGCTATCGGTCGATCCGTATATCAAAACTGATACCGCAAGGCTAAGGCGTGTGTACGTAACACCTACTGTAAGGAGGCAACATGTAGGTCAGGCGCTGGTAAAAGCATTGATTGCGCAGGCCGCGCTTCGTTTTCAGTGCGTGCGTCTTTCCACTGACACCTCTGAAGGCGATGCGTTTTACCTGCGTTGCGG (double strand) [PSPPH4977]”: in series [1], the binding result is given as “binds”.
Still for that read-out and setting: in the case of “TACAAGGGGTAGGGCTGTGACTGTCAGAAAGGTCCTATGCCCCGACACCTGCACGGTATAGAACACGCCAAACATCACGGCCATACGCCACCATCCGCTCTCCCGAATGTTCAGCAAAAGTACAGATACATCCTGCTACAACAATCCTTGCGCAGAAACATTTGAGCGACTGGGCACTGCGTTCAGCGCCACTGCACCTGCGGATGATTCCGAGGAGGCAACATGTTCTTAAGGTATGGGGTATTGATCGCATCACTTGCGATAGCGTCA (double strand) [PSPPH1086]” it was “binds”.
Turning to “GCAGGAACCCCTCTCGTTATCGGGTTGTCGACAACAGACTGGCTGTTAAAACCTGTTCAGAGTGTGAACAGAGCCTGGACACCTGAATTTTCATTACGAGAGGTTGCC (double strand) [PSPTO_1489 promoter]”, the binding entry in series [3] was “no binding”.
Regarding “TTCGATACTTAGCGGATCAGGCATTATCGCATCGCCGCAAAAAATAATCCTGCCGCCGGGAGGAGAGCACACGGTTAGATTGCGCTCGTTGTCGAGTCCAAATAAAGAGTTGTTATATCGTGTATATGTCGAGACTGTAGCTGCGAATACGGATGAAGATCATGTGGTTACAGAGGGGGGTGGCAGCGTTGGTATTAGTCTAACATGGGGG (double strand) [PSPPH0775]”, the binding result in series [1] is listed as “no binding”.
With “GGGAACAGTTTGCGTTTTTCAGCCAGCCTCACTCATTAGCTGGATAAGCAGACAGGCGTTCTTTCACTTGATTCCGGTACAAGTTCTCATAACGATTGAAAGCCTGCTGCATCGATTCATCTATCCATGTATAAATGCTGTTACACATTGGCCCATCTCTGGAGACTCAGCGCATGCGTTACGCGCTCGATCATAAGGCCCAAACCCATCAACGTATCGTCAAGGAAGCGTCCATGCGCTTTCGTCGCGATGGCATTGGTGCTACGGGCTTACAACCTT (double strand) [PSPPH3654]”, in series [1], the binding entry is on record as “binds”.

The values above are taken from paper PMC4191427, “Molecular mechanisms of two-component system RhpRS regulating type III secretion system in Pseudomonas syringae” (Nucleic Acids Research, 2014).
